Data reported in US9283300B2, “Use of midkine protein and the protein-containing medical device” (GENERAL REGENERATIVES, LTD, priority 2009, dated 2016).

Legend:
Type in all cases: cell-based
[1] = tested on: rat fibrochondrocyte and articular chondrocyte; experiment: Phenotype of chondrocytes in monolayer culture (semi-quantitative PCR, collagen II immunohistochemical staining); details: passages P0-P2, Col2a1/collagen II
Method: (§1) 3. Culture of primary chondrocytes in monolayer. Three types of primary chondrocytes were suspended in DMEM medium containing 10% FBS, adjusted to 5×10^4 cells/ml, added to 6-well plate with 2 ml medium/well, and incubated in 37° C. at 5% CO2. Experiment was divided into two groups: control group and experimental group (with 3 μg/ml rhMK). Cell medium was changed every two days. When the cells grew to the confluence of 85% to 90%, the cells were collected by trypsin digestion, washed in PBS by centrifugation. The cells were resuspended in DMEM containing 10% FBS. Cell survival was monitored by trypan blue staining. Part of the cells were used for cell passage; some were for RNA extraction; some were cytospined onto a glass slide for later immunohistochemical staining and the slides were stored at −80° C. Primary cells or passage 0 (P0) were cultured for 7 days. The newly passaged cells were further cultured in a 6-well plate for 3 days which was then collected by trypsin-digestion and marked as passage P1. The cell amplification at each passage=total number of cells at output/total number of cells at initial input. 6. Immunohistochemical staining. […] RNA extraction and semi-quantitative PCR. […] PCR products were separated on 1.5% (w/v) agarose gels and quantified after staining with ethidium bromide in comparison with internal control gene expression of β-actin.

[2] = tested on: rat primary fibrochondrocyte; experiment: MTT proliferation assay, primary chondrocytes in monolayer; details: for light absorbance at 490 nm in MTT assay: Fibrochondrocyte, 48 h, mean ± SD
Method: (§2) 1. Preparation of primary chondrocyte. The 8-week-old male SD rats were sacrificed under sterile conditions. The articular cartilage, fibrocartilage and elastic cartilage tissue were isolated from the femur joints, meniscus and outer ear respectively using a scalpel. The isolated cartilage were cut into small pieces, washed twice with phosphate buffered saline (PBS), and digested with trypsin (0.25% (w/v) trypsin/0.02% (w/v) EDTA) at 37° C. for 30 min. The articular cartilage and elastic cartilage were further digested with 0.2% type II collagenase for additional 16 h, and the fibrocartilage were further digested with 0.15% type I collagenase for additional 16 h. After digestion, three chondrocytes were passed through 100 μm filter (Falcon, USA) into 15 ml centrifuge tubes, centrifuged at room temperature at 2000 rpm for 5 min. Cells were resuspended in DMEM containing 10% FBS (fetal bovine serum). Trypan blue staining of the freshly isolated cells was used to monitor the percentage of live cells under the microscope. When the number of live cells is more than 95%, it was used for subsequent experiments.
(§3) 2. MTT assay. Three types of primary chondrocytes were suspended at a density of 5×10^4 cells/ml in DMEM containing 10% FBS. Cells were seeded into a 96-well plate (100 μl per well) and cultured at 37° C. under 5% CO2 for 48 h. The cells were washed with serum-free DMEM medium once. Different concentrations of rhMK (0.5, 1.0, 3.0, 5.0, 9.0 μg/ml) in DMEM (containing 0.5% FBS) were added to each well and the cells were cultured for additional 48 h. After incubation, the medium was replaced with 100 μl serum-free DMEM medium and 20 μl MTT solution (0.5 mg/ml, in PBS), incubated at 37° C. under 5% CO2 for 4 h. After removing the liquid, 120 μl DMSO was added to dissolve the MTT crystals by shaking for 1 min on a micro-plate oscillator. Light absorbance at 490 nm was measured using a microplate reader (BIO-TEK, USA).

[3] = tested on: rat primary articular chondrocyte; experiment: as above; details: for light absorbance at 490 nm in MTT assay: Articular chondrocyte, 48 h, mean ± SD
Method: as §2, §3

[4] = tested on: rat primary auricular (ear elastic cartilage) chondrocyte; experiment: as above; details: for light absorbance at 490 nm in MTT assay: Auricular chondrocyte, 48 h, mean ± SD
Method: as §2, §3

[5] = tested on: rat auricular chondrocytes; experiment: Phenotype of chondrocytes in monolayer culture (semi-quantitative PCR of Col2a1, collagen II immunohistochemical staining)
Method: as §1

B1: rhMK: recombinant human midkine mature protein (SEQ ID NO.1) expressed in E. coli and purified by ion-exchange chromatography (protein, listed as Homo sapiens)
chain: MKKKDKVKKGGPGSECAEWAWGPCTPSSKDCGVGFREGTCGAQTQRIRCRVPCNWKKEFGADCKYKFENWGACDGGTGTKVRQGTLKKARYNAQCQETIRVTKPCTPKTKAKAKAKKGKGKD
effect on the phenotype of fibrochondrocyte and articular chondrocyte [1]: no significant effect | light absorbance at 490 nm in MTT assay ([2]; rhMK 0.5 μg/ml): 0.42 ± 0.02 | light absorbance at 490 nm in MTT assay ([2]; rhMK 1.0 μg/ml): 0.43 ± 0.02 | light absorbance at 490 nm in MTT assay ([2]; rhMK 3.0 μg/ml): 0.47 ± 0.00 | light absorbance at 490 nm in MTT assay ([2]; rhMK 5.0 μg/ml): 0.45 ± 0.00 | light absorbance at 490 nm in MTT assay ([2]; rhMK 9.0 μg/ml): 0.45 ± 0.00 | lowest effective dose of rhMK (proliferation, MTT) ([2]; fibrochondrocyte, monolayer): 3 µg/mL | light absorbance at 490 nm in MTT assay ([3]; rhMK 0.5 μg/ml): 0.33 ± 0.02 | light absorbance at 490 nm in MTT assay ([3]; rhMK 1.0 μg/ml): 0.40 ± 0.01 | light absorbance at 490 nm in MTT assay ([3]; rhMK 3.0 μg/ml): 0.38 ± 0.01 | light absorbance at 490 nm in MTT assay ([3]; rhMK 5.0 μg/ml): 0.30 ± 0.01 | light absorbance at 490 nm in MTT assay ([3]; rhMK 9.0 μg/ml): 0.39 ± 0.01 | lowest effective dose of rhMK (proliferation, MTT) ([3]; articular chondrocytes, monolayer): 1 µg/mL | light absorbance at 490 nm in MTT assay ([4]; rhMK 0.5 μg/ml): 0.52 ± 0.05 | light absorbance at 490 nm in MTT assay ([4]; rhMK 1.0 μg/ml): 0.54 ± 0.02 | light absorbance at 490 nm in MTT assay ([4]; rhMK 3.0 μg/ml): 0.56 ± 0.01 | light absorbance at 490 nm in MTT assay ([4]; rhMK 5.0 μg/ml): 0.56 ± 0.02 | light absorbance at 490 nm in MTT assay ([4]; rhMK 9.0 μg/ml): 0.56 ± 0.02 | lowest effective dose of rhMK (proliferation, MTT) ([4]; ear elastic cartilage cells, monolayer): 0.5 µg/mL | effect on Col2a1 expression (semiquantitative PCR) ([5]; auricular chondrocyte after one passage): inhibited the decreasing of the Col2a1 | chondrocytes stained collagen II positive ([5]; auricular chondrocytes, passage one, rhMK group, not detected without rhMK): about 50%
